B1: TrnC (enzyme)
chain: MSKKRLSMMPFKTDKFSYALDGNTGRVIVADKPTLYIISHFHKFEKEELLKKTKGKFAELHQDYLTTYNYVSSLINMGMFYLSEKEDSDSPIDSKELAINSNQSQLILILTEKCNLRCEYCIYNDKYPKEMGYSDEEMDFETAKKAVDMYYELHMERVKRGHKRFPVITMYGGEPLLKFDLIKKVMEYAKGLMPDTLFYTTTNGTLLSEKMMDYFINNRIIITFSIDGFKENHDRNRVFVNGMPTFERAFKNIKRLQEKKKEQNIEQIISFNCCFDQYTDVYKVAKFFEEHYDLFNPFFVLYNQINPFDTLYFDWCDEQVKTGKWNFDKNNFKNAMQKIEHELYEAETCDDHFQQVAGPLVMKDFVLSIRNKDGQQQITRNSCIPTSKIAVSPDGTLTLCEKMCKKYPIGTVEKGLDWKAVDGVTEKLVRHFNSDSCKYCPIRTMCEACFMFLDENGRIKPSFCKSKKMAVKKNLESYFAKKEKGFDVMKVYNHTSDLDSVKEMVK
modifications: fluorescently labeled with RED-NHS (in the MST experiments where TrnC is the labelled partner)

Legend:
Assay in all cases: MST
TrnC = target: B1
TrnD = target: T1, TrnD (Bacillus thuringiensis, fluorescently labeled (in the MST of Fig. 5D only))
T1 chain: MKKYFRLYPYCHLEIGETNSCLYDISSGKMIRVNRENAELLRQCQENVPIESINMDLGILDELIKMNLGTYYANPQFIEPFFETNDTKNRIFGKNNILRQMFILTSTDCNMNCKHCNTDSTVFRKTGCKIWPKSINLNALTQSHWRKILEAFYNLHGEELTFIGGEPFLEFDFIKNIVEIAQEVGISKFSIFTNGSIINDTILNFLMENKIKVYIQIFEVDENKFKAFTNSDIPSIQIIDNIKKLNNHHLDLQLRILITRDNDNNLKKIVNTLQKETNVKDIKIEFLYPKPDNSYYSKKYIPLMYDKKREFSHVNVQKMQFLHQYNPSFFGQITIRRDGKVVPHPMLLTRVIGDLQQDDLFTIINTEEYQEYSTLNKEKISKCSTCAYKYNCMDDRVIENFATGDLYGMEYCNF

E79A mutant of TrnD = E79A mutant of TrnD (Bacillus thuringiensis)

MEVLNKQNVNIIPESEEVGGWVACVGACGTVCLASGGVGTEFAAASYFL [TrnB]
Kd (TrnC): 2.47 µM | Kd (TrnD): 2.11 µM

B1
Kd (E79A mutant of TrnD): 0.59 µM

MEVMNNALITKVDEEIGGNAACVIGCIGSCVISEGIGSLVGTAFTLG [TrnA]
Kd (TrnC): 5.41 µM | Kd (TrnD): 4.43 µM

From publication PMC12093266 (2025)
